US20200002431A1 (Seagen, published 2020)
Numbering of substitutions follows the chain as printed.

T1: human BCMA (B-cell maturation antigen, CD269) expressed on cells (human, UniProt Q02223 1-184)
T1 construct: Endogenous on myeloma lines (NCI-H929, U266, JJN3) or a full-length clone transfected into HEK 293 cells; also called hBCMA; BCMA expressed on NCI-H929 cells
T1 sequence: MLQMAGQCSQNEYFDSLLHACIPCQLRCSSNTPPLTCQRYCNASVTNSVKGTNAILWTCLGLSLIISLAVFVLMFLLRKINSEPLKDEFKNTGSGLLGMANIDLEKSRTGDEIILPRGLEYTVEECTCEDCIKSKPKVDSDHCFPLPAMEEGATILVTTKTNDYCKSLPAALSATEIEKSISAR

B1: hSG16.17 vH3 vK2 (antibody, V domains shown)
VH: QVQLVQSGAEVKKPGASVKLSCKASGYTFTDYYIHWVRQAPGQGLEWIGYINPNSGYTNYAQKFQGRATMTADKSINTAYVELSRLRSDDTAVYFCTRYMWERVTGFFDFWGQGTMVTVSS
VL: DIQMTQSPSSVSASVGDRVTITCLASEDISDDLAWYQQKPGKAPKVLVYTTSSLQSGVPSRFSGSGSGTDFTLTISSLQPEDFATYFCQQTYKFPPTFGGGTKVEIKR
notes: also called hSG16.17 9; VH3 VK2 humanized antibody
B2: hSG16.17 vH5 vK4 (antibody, V domains shown)
VH: B1 VH with L20V, N59K, A61N, Q62E, K63N, Q65K, G66T, I76T, R85S, D89E
VL: B1 VL with S53R, L78M, T85D
notes: also called hSG16.17 19
B3: hSG16.17 vH1 vK3 (antibody, V domains shown)
VH: B1 VH with G8R, N59K, A61N, Q62E, K63N, Q65K, G66T
VL: B1 VL with L24R
notes: also called hSG16.17 2
B4: hSG16.17 vH1 vK4 (antibody, V domains shown)
VH: B1 VH with G8R, N59K, A61N, Q62E, K63N, Q65K, G66T
VL: B1 VL with S53R, L78M, T85D
notes: also called hSG16.17 3
B5: hSG16.17 vH6 vK3 (antibody, V domains shown)
VH: B1 VH with G8R, I34M, Y50I, N59S, A68V, I76T, R85S, D89E
VL: B1 VL with L24R
notes: also called hSG16.17 22
B6: hSG16.17 vH3 vK5 (antibody, V domains shown)
VH: B1 VH
VL: B1 VL with L24R, P40S
notes: also called hSG16.17 12
B7: hSG16.17 vH6 vK4 (antibody, V domains shown)
VH: B1 VH with G8R, I34M, Y50I, N59S, A68V, I76T, R85S, D89E
VL: B1 VL with S53R, L78M, T85D
notes: also called hSG16.17 23
B8: hSG16.17 vH3 vK4 (antibody, V domains shown)
VH: B1 VH
VL: B1 VL with S53R, L78M, T85D
notes: also called hSG16.17 11
B9: hSG16.17 vH1 vK5 (antibody, V domains shown)
VH: B1 VH with G8R, N59K, A61N, Q62E, K63N, Q65K, G66T
VL: B1 VL with L24R, P40S
notes: also called hSG16.17 4
B10: hSG16.17 vH1 vK2 (antibody, V domains shown)
VH: B1 VH with G8R, N59K, A61N, Q62E, K63N, Q65K, G66T
VL: B1 VL
notes: also called hSG16.17 1
B11: hSG16.17 vH2 vK3 (antibody, V domains shown)
VH: B1 VH with I34M, Y50R, A68V
VL: B1 VL with L24R
notes: also called hSG16.17 6
B12: hSG16.17 vH5 vK5 (antibody, V domains shown)
VH: B1 VH with L20V, N59K, A61N, Q62E, K63N, Q65K, G66T, I76T, R85S, D89E
VL: B1 VL with L24R, P40S
notes: also called hSG16.17 20
B13: hSG16.17 vH6 vK5 (antibody, V domains shown)
VH: B1 VH with G8R, I34M, Y50I, N59S, A68V, I76T, R85S, D89E
VL: B1 VL with L24R, P40S
notes: also called hSG16.17 24
B14: hSG16.17 vH2 vK4 (antibody, V domains shown)
VH: B1 VH with I34M, Y50R, A68V
VL: B1 VL with S53R, L78M, T85D
notes: also called hSG16.17 7
B15: hSG16.17 vH6 vK2 (antibody, V domains shown)
VH: B1 VH with G8R, I34M, Y50I, N59S, A68V, I76T, R85S, D89E
VL: B1 VL
notes: also called hSG16.17 21
B16: hSG16.17 vH3 vK3 (antibody, V domains shown)
VH: B1 VH
VL: B1 VL with L24R
notes: also called hSG16.17 10
B17: hSG16.17 vH5 vK2 (antibody, V domains shown)
VH: B1 VH with L20V, N59K, A61N, Q62E, K63N, Q65K, G66T, I76T, R85S, D89E
VL: B1 VL
notes: also called hSG16.17 17
B18: hSG16.17 vH5 vK3 (antibody, V domains shown)
VH: B1 VH with L20V, N59K, A61N, Q62E, K63N, Q65K, G66T, I76T, R85S, D89E
VL: B1 VL with L24R
notes: also called hSG16.17 18
B19: hSG16.17 vH2 vK5 (antibody, V domains shown)
VH: B1 VH with I34M, Y50R, A68V
VL: B1 VL with L24R, P40S
notes: also called hSG16.17 8
B20: hSG16.17 vH2 vK2 (antibody, V domains shown)
VH: B1 VH with I34M, Y50R, A68V
VL: B1 VL
notes: also called hSG16.17 5
B21: hSG16.45 vH1 vK1 (antibody, V domains shown)
VH: EVQLLESGGGLVQPGGSLRLSCAASGFTFNDHWMTWIRQAPGKGLEWISSITNTGGATYYLDSVKGRFTISRDNSKNTLYLQMNSLRAEDTAVYYCTSPGLYFDYWGQGVMVTVSS
VL: EIVLTQSPGTLSASPGERVTISCRASSSVSVMYWYQHKPGQAPRLLIYSTSSLASGVPDRFSGSGSGTDYTLTISRMEPEDFAVYYCHQWSSDPPTFGQGTKLEIKR
notes: also called hSG16.45 1
B22: rat SG16.45 antibody (antibody, V domains shown)
VH: B21 VH with L5V, G16R, R19K, A23V, K43R, S75A, N77S, A88S, V93T
VL: EIVLTQSPTTTAASPGEKVTITCLATSSVSVMYWYQHKSGASPKLLIYSTSSLASGVPDRFSGSGSGTSYSLTINTMEAEDAATYYCHQWSSDPPTFGSGTKLEIKR
notes: Rat monoclonal antibody; also called rSG16.45; hybridoma well 45
B23: cSG16.45 (antibody, V domains shown)
VH: B21 VH with L5V, G16R, R19K, A23V, K43R, S75A, N77S, A88S, V93T
VL: B22 VL
notes: also called chimeric SG16.45
B24: hSG16.45 vH6 vK2 (antibody, V domains shown)
VH: B21 VH with L5V, G16R, I37V, I48V, S50G, L61A, S75A, T78S, V93L, V110T
VL: B21 VL with A13L, V19A, I21L, H37Q, V57I, Y70F, M77L
notes: also called hSG16.45 22
B25: hSG16.45 vH6 vK5 (antibody, V domains shown)
VH: B21 VH with L5V, G16R, I37V, I48V, S50G, L61A, S75A, T78S, V93L, V110T
VL: B21 VL with A13L, V19A, I21L, R24L, S26T, V57I, M77L
notes: also called hSG16.45 24
B26: hSG16.45 vH6 vK1 (antibody, V domains shown)
VH: B21 VH with L5V, G16R, I37V, I48V, S50G, L61A, S75A, T78S, V93L, V110T
VL: B21 VL
notes: also called hSG16.45 21
B27: hSG16.45 vH5 vK5 (antibody, V domains shown)
VH: B21 VH with L5V, I37V, E46V, I48V, L61A, S75A, V110T
VL: B21 VL with A13L, V19A, I21L, R24L, S26T, V57I, M77L
notes: also called hSG16.45 20
B28: hSG16.45 vH1 vK2 (antibody, V domains shown)
VH: B21 VH
VL: B21 VL with A13L, V19A, I21L, H37Q, V57I, Y70F, M77L
notes: also called hSG16.45 2
B29: hSG16.45 vH4 vK1 (antibody, V domains shown)
VH: B21 VH with I37V, L61A, N77S, V110T
VL: B21 VL
notes: also called hSG16.45 13
B30: hSG16.45 vH6 vK3 (antibody, V domains shown)
VH: B21 VH with L5V, G16R, I37V, I48V, S50G, L61A, S75A, T78S, V93L, V110T
VL: B21 VL with A13L, V19A, M77L
notes: also called hSG16.45 23
B31: hSG16.45 vH4 vK5 (antibody, V domains shown)
VH: B21 VH with I37V, L61A, N77S, V110T
VL: B21 VL with A13L, V19A, I21L, R24L, S26T, V57I, M77L
notes: also called hSG16.45 16
B32: hSG16.45 vH4 vK3 (antibody, V domains shown)
VH: B21 VH with I37V, L61A, N77S, V110T
VL: B21 VL with A13L, V19A, M77L
notes: also called hSG16.45 15
B33: hSG16.45 vH3 vK5 (antibody, V domains shown)
VH: B21 VH with S50A, L61A, N77S
VL: B21 VL with A13L, V19A, I21L, R24L, S26T, V57I, M77L
notes: also called hSG16.45 12
B34: hSG16.45 vH1 vK5 (antibody, V domains shown)
VH: B21 VH
VL: B21 VL with A13L, V19A, I21L, R24L, S26T, V57I, M77L
notes: also called hSG16.45 4
B35: hSG16.45 vH5 vK1 (antibody, V domains shown)
VH: B21 VH with L5V, I37V, E46V, I48V, L61A, S75A, V110T
VL: B21 VL
notes: also called hSG16.45 17
B36: hSG16.45 vH5 vK3 (antibody, V domains shown)
VH: B21 VH with L5V, I37V, E46V, I48V, L61A, S75A, V110T
VL: B21 VL with A13L, V19A, M77L
notes: also called hSG16.45 19
B37: hSG16.45 vH4 vK2 (antibody, V domains shown)
VH: B21 VH with I37V, L61A, N77S, V110T
VL: B21 VL with A13L, V19A, I21L, H37Q, V57I, Y70F, M77L
notes: also called hSG16.45 14
B38: hSG16.45 vH5 vK2 (antibody, V domains shown)
VH: B21 VH with L5V, I37V, E46V, I48V, L61A, S75A, V110T
VL: B21 VL with A13L, V19A, I21L, H37Q, V57I, Y70F, M77L
notes: also called hSG16.45 18
B39: hSG16.45 vH1 vK3 (antibody, V domains shown)
VH: B21 VH
VL: B21 VL with A13L, V19A, M77L
notes: also called hSG16.45 3

Experiments:
[1] = target: T1, human BCMA (B-cell maturation antigen, …); assay: cell binding, NCI-H929 cells expressing BCMA, 3-pt assay
Description: The six humanized heavy chains and four humanized light chains were tested in all 24 possible permutations for binding to BCMA expressed on NCI-H929 cells, which express about 50,000 molecules of BCMA per cell.

[2] = target: T1, human BCMA (B-cell maturation antigen, …); assay: cell binding, U266 cells, full range of concentration points

Binder	binding result [1]	binding result [2]
B1	binds	–
B2	binds	–
B3	binds	–
B4	binds	–
B5	binds	–
B6	binds	–
B7	binds	–
B8	binds	–
B9	binds	–
B10	binds	–
B11	–	binds
B12	binds	–
B13	binds	–
B14	–	binds
B15	binds	–
B16	binds	–
B17	binds	–
B18	binds	–
B19	–	binds
B20	–	binds

Binder	binding result [1]	binding result [2]
B21	binds	–
B22	binds	–
B23	binds	–
B24	binds	–
B25	binds	–
B26	binds	–
B27	binds	–
B28	binds	–
B29	binds	–
B30	binds	–
B31	binds	–
B32	binds	–
B33	binds	–
B34	binds	–
B35	binds	–
B36	binds	–
B37	binds	–
B38	binds	–
B39	binds	–
